Measured values from US12648964B2, “Chimeric Tim receptors and uses thereof” (CERO THERAPEUTICS HOLDINGS, INC., priority 2020, dated 2026).
Entries after “also recorded” stand apart in the source; their conditions may differ. Where two headings read alike, the source gives them in different places.

Tests used:
[1] = system: Kuramochi cells; conditions: 1.56 or 25 μM Niraparib, 48 hours, vs DMSO
Protocol: FIG. 7A: Flow cytometry measurement of surface PtdSer. Kuramochi cells were treated with 1.56 or 25 μM Niraparib or with equivalent volume of DMSO (control). 48 hours later samples were trypsinized and stained using a Tim4-Fc followed by a fluorescently-labeled secondary antibody to the Tim4-Fc. […] All data were collected via IncuCyte.
(§1) In ovarian tumors, poly (ADP-ribose) polymerase (PARP) inhibitors, such as Niraparib, are clinically approved drugs which target DNA damage response pathways. Responses are rarely complete, with relapse common after treatment. To induce Ptd-Ser exposure, BRCA-2 mutated Kuramochi cell line was treated with therapeutic doses of the PARP inhibitor Niraparib.

[2] = system: Kuramochi cells; conditions: BRCA-2 mutated Kuramochi cell line
Protocol: as §1

[3] = system: E7 TCR-T cells; assay: E7 TCR-T cell activation markers CD25/CD69 after co-culture with E7 peptide-pulsed CER-T cells (flow cytometry); assay type: cell-based
Protocol: (§2) FIG. 2: T cells containing chimeric Tim4 receptors with a TLR intracellular signaling domain added to the CD3ζ signaling domain (and optionally a CD28 signaling domain) are strong stimulators of autologous E7-specific T cell responses. CER-T cells were pulsed with E7 peptide and tested for their capacity to trigger an autologous E7-specific T cell response. CD25, a T cell activation marker, was evaluated on E7 TCR-T cells, 24 hours after CER-T cells were pulsed with E7 peptides.
as §2, with “3:” for “2:”, “CD69, an early marker for” for “CD25, a”, “activation,” for “activation marker,”
(§3) Chimeric Tim4 receptor-T cells were tested to determine whether they can capture and present soluble antigens and trigger activation and proliferation of recombinant E7-restricted T cell clones in a co-culture system. First expression of Tim4 was confirmed on transduced CER T cells by flow cytometry. Tim4 binding domain-CD28 transmembrane-CD28 signaling domain-CD3z signaling domain (CTX247) and Tim4 binding domain-CD28 signaling domain-CD3z signaling domain-TLR2 signaling domain (CTX1107) were stained for Tim4 and EGFR, a transduction marker encoded on each vector. […] E7 TCRs proliferate in response to APCs pulsed with E7 peptide through MHC class I. For autologous APCs, CD4+ and CD8+ chimeric Tim4 receptor T cell products transduced with different Tim-4 chimeric receptors were pulsed with a pool of 15-mer peptides containing 11-mer overlaps derived from the E7 protein from HPV16 or vehicle. Chimeric Tim4 receptor T cells were pulsed at 37° C. for 4 hrs with E7 peptides and tested for their capacity to trigger E7-specific activation and proliferation. E7-TCR cell surface activation marker responses were evaluated by flow cytometry 24 hours following co-culture with chimeric Tim4 receptor-T cell products. After an additional 5 days of co-culture, proliferative responses were assessed by Cell Trace (CT) Violet dilution.
A higher frequency of E7-TCR containing T cells expressed both activation markers 24 hours after co-culture (FIG. 2).

[4] = system: E7 TCR-T cells; assay: E7-specific T cell proliferation by CT Violet dye dilution after co-culture with E7 peptide-pulsed CER-T cells; assay type: cell-based; conditions: for stimulation / proliferation responses of E7-specific T cells: CER-T pulsed with E7 peptides, CT Violet dilution after 6 days
Protocol: FIG. 1A: a schematic of pCTX247 and pCTX1107 chimeric Tim4 receptors and pCTX1107 T cells pulsed with E7 peptides and co-cultured with E7-specific T cells to evaluate their antigen presentation capacity. FIG. 1B: E7-specific proliferation responses were measured by CT Violet dye dilution after 6 days in the presence of autologous CER-T (TLR containing or non-containing CERs) pulsed with E7 peptides. […] All data collected by FACS. Cell tracing show E7 TCR-T cells using an anti-mouse TCRb. E7 TCR-T cells were labeled with CT Violet at the time of co-culture.
as §3, with “dilution. […]” for “dilution.”

[5] = system: phosphatidylserine; conditions: cited from earlier work; for binding at High PtdSer: high phosphatidylserine density; for binding at Low PtdSer: low phosphatidylserine density
[6] = 24 hours after CER-T cells pulsed with E7 peptides

## NC(=O)c1cccc2cn(-c3ccc([C@@H]4CCCNC4)cc3)nc12 [Niraparib]
[1]
  surface PtdSer (membrane phospholipid symmetry): elicits changes in membrane phospholipid symmetry, in a dose dependent manner
[2]
  inhibition of growth of Kuramochi cells: effective in inhibiting growth

B1: pCTX1107: Tim4 binding domain-CD28 signaling domain-CD3z signaling domain-TLR2 signaling domain (protein)
chain: ETVVTEVLGHRVTLPCLYSSWSHNSNSMCWGKDQCPYSGCKEALIRTDGMRVTSRKSAKYRLQGTIPRGDVSLTILNPSESDSGVYCCRIEVPGWFNDVKINVRLNLQRASTTTHRTATTTTRRTTTTSPTTTRQMTTTPAALPTTVVTTPDLTTGTPLQMTTIAVFTTANTCLSLTPSTLPEEATGLLTPEPSKEGPILTAESETVLPSDSWSSVESTSADTVLLTSKESKVWDLPSTSHVSMWKTSDSVSSPQPGASDTAVPEQNKTTKTGQMDGIPMSMKNEMPISQRSKRSRLLHSDYMNMTPRRPGPTRKHYQPYAPPRDFAAYRSRVKFSRSADAPAYQQGQNQLYNELNLGRREEYDVLDKRRGRDPEMGGKPRRKNPQEGLYNELQKDKMAEAYSEIGMKGERRRGKGHDGLYQGLSTATKDTYDALHMQALPPRHRFHGLWYMKMMWAWLQAKRKPRKAPSRNICYDAFVSYSERDAYWVENLMVQELENFNPPFKLCLHKRDFIPGKWIIDNIIDSIEKSHKTVFVLSENFVKSEWCKYELDFSHFRLFDENNDAAILILLEPIEKKAIPQRFCKLRKIMNTKTYLEWPMDEAQREGFWVNLRAAIKS
modifications: left off: large carriers
[3]; [6]
  CD25 on E7 TCR-T cells (E7-specific activation): strong stimulator of E7-specific activation
  CD69 on E7 TCR-T cells (E7-specific activation): strong stimulator of E7-specific activation
[3]; 24 hours after co-culture, flow cytometry
  CD25 and CD69 upregulation (E7-specific activation): strong stimulatory of E7-specific activation
[3]; 24 hrs following co-culture, controls 23.1%
  E7 TCR-T cell surface activation markers CD25 and CD69 upregulated: 41.2%
[4]
  stimulation / proliferation responses of E7-specific T cells: stimulatory for E7-specific T cells; also recorded: triggered proliferation responses of E7-specific TCRs
[4]; by 6 days, controls 8%
  percentage of dividing E7-TCR-T cells: 44%

B2: Tim-4: T-cell immunoglobulin and mucin domain containing protein 4, phosphatidylserine receptor (protein, UniProt Q96H15 25-378, looked up)
T-cell immunoglobulin and …: ETVVTEVLGHRVTLPCLYSSWSHNSNSMCWGKDQCPYSGCKEALIRTDGMRVTSRKSAKYRLQGTIPRGDVSLTILNPSESDSGVYCCRIEVPGWFNDVKINVRLNLQRASTTTHRTATTTTRRTTTTSPTTTRQMTTTPAALPTTVVTTPDLTTGTPLQMTTIAVFTTANTCLSLTPSTLPEEATGLLTPEPSKEGPILTAESETVLPSDSWSSVESTSADTVLLTSKESKVWDLPSTSHVSMWKTSDSVSSPQPGASDTAVPEQNKTTKTGQMDGIPMSMKNEMPISQLLMIIAPSLGFVLFALFVAFLLRGKLMETYCSQKHTRLDYIGDSKNVLNDVQHGREDEDGLFTL
[5]
  Cooperativity: Yes
  binding at High PtdSer: Strong
  binding at Low PtdSer: Minimal
[5]; listed as Tim4 binding domain
  binding at Low PtdSer: binds minimally

B3: pCTX247: Tim4 binding domain-CD28 transmembrane-CD28 signaling domain-CD3z signaling domain (protein)
chain: ETVVTEVLGHRVTLPCLYSSWSHNSNSMCWGKDQCPYSGCKEALIRTDGMRVTSRKSAKYRLQGTIPRGDVSLTILNPSESDSGVYCCRIEVPGWFNDVKINVRLNLQRASTTTHRTATTTTRRTTTTSPTTTRQMTTTPAALPTTVVTTPDLTTGTPLQMTTIAVFTTANTCLSLTPSTLPEEATGLLTPEPSKEGPILTAESETVLPSDSWSSVESTSADTVLLTSKESKVWDLPSTSHVSMWKTSDSVSSPQPGASDTAVPEQNKTTKTGQMDGIPMSMKNEMPISQFWVLVVVGGVLACYSLLVTVAFIIFWVRSKRSRLLHSDYMNMTPRRPGPTRKHYQPYAPPRDFAAYRSRVKFSRSADAPAYQQGQNQLYNELNLGRREEYDVLDKRRGRDPEMGGKPRRKNPQEGLYNELQKDKMAEAYSEIGMKGERRRGKGHDGLYQGLSTATKDTYDALHMQALPPR
[4]
  stimulation / proliferation responses of E7-specific T cells: not stimulatory

B4: Tim-1: T-cell immunoglobulin and mucin domain containing protein 1, phosphatidylserine receptor (protein, UniProt Q96D42 21-364, looked up)
Hepatitis A virus cellular …: SVKVGGEAGPSVTLPCHYSGAVTSMCWNRGSCSLFTCQNGIVWTNGTHVTYRKDTRYKLLGDLSRRDVSLTIENTAVSDSGVYCCRVEHRGWFNDMKITVSLEIVPPKVTTTPIVTTVPTVTTVRTSTTVPTTTTVPMTTVPTTTVPTTMSIPTTTTVLTTMTVSTTTSVPTTTSIPTTTSVPVTTTVSTFVPPMPLPRQNHEPVATSPSSPQPAETHPTTLQGAIRREPTSSPLYSYTTDGNDTVTESSDGLWNNNQTQLFLEHSLLTANTTKGIYAGVCISVLVLLALLGVIIAKKYFFKKEVQQLSVSFSSLQIKALQNAVEKEVQAEDNIYIENSLYATD
[5]
  binding at High PtdSer: Strong
  binding at Low PtdSer: Moderate
[5]; listed as Tim1 binding domain
  binding at Low PtdSer: binds more strongly to a lower phosphatidylserine density
[5]; moderate phosphatidylserine density
  binding at Moderate PtdSer: Strong
